Experimental data as given in patent publication US20260234247A1 (published 2026).
Residue numbers refer to the chain shown, from its start.

Tests used:
[1] = molecular target: T1, human LILRA3 (human, UniProt Q8N6C8 24-439); assay: ELISA, OD450, antibody at 200 nM; + = 2-fold over ISO
T1 construct: bought protein coated for ELISA; also called hLILRA3
T1 sequence (Q8N6C8 24-439 limits assumed): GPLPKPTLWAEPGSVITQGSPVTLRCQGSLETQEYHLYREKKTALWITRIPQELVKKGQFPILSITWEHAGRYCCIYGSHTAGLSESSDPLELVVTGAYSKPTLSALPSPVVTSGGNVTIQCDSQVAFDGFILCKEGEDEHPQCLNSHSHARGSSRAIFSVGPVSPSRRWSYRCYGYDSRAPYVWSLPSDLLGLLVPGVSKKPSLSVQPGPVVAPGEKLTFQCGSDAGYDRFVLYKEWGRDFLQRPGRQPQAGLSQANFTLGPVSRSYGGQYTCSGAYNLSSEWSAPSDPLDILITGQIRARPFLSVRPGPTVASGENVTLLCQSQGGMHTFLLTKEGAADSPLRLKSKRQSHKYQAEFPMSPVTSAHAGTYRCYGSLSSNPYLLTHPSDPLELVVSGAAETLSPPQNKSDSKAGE
Protocol: (§1) To further confirm binding affinity, selected clones were assayed in ELISA or FACS in a range of testing concentrations.

[2] = molecular target: T2, human LILRA2 (human, UniProt Q8N149 24-449); assay: as above
T2 construct: bought protein coated for ELISA; also called hLILRA2
T2 sequence (Q8N149 24-449 limits assumed): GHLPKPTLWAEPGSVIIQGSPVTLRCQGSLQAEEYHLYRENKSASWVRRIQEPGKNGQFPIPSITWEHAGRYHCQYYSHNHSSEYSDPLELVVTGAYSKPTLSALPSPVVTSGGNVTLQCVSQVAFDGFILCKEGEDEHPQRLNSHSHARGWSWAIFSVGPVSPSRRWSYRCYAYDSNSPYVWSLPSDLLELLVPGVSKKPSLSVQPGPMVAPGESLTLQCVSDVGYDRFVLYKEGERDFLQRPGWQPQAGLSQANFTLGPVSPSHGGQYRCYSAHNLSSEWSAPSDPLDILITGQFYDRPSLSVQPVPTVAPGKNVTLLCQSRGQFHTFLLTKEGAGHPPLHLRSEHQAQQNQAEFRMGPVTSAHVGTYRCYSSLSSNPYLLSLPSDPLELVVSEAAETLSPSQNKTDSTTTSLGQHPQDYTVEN
Protocol: as §1

[3] = molecular target: T3, human LILRA1 (human, UniProt O75019 17-461, limits assumed); assay: as above
T3 construct: bought protein coated for ELISA; also called hLILRA1
T3 sequence (O75019 17-461 limits assumed): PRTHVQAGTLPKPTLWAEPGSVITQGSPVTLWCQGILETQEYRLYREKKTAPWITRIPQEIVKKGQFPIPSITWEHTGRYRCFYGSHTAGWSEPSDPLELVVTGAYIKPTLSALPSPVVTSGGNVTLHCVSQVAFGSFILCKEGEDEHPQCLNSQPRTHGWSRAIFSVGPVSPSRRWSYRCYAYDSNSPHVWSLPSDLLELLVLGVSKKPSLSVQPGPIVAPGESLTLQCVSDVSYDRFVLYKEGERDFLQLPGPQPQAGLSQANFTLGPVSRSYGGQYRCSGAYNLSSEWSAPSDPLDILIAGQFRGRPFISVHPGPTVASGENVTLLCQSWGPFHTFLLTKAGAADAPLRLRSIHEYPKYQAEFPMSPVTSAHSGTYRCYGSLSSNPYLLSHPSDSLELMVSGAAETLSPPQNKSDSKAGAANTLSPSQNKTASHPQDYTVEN
Protocol: as §1

[4] = molecular target: T4, human LILRA3 (human, UniProt Q8N6C8 24-439); assay: as above; remark: listed apart in the source
T4 construct: bought protein coated for ELISA; also called hLILRA3
T4 sequence (Q8N6C8 24-439 limits assumed): as the sequence (Q8N6C8 24-439 limits assumed) above
Protocol: as §1

[5] = molecular target: T5, human LILRA4 (human, UniProt P59901 24-446); assay: as above
T5 construct: bought protein coated for ELISA; also called hLILRA4
Protocol: as §1

[6] = molecular target: T6, human LILRA1 (human, UniProt O75019 17-461, limits assumed); assay: ELISA, 200 nM antibody, OD450; + = 2-fold over ISO
T6 construct: Bought protein; also called hLILRA1
T6 sequence (O75019 17-461 limits assumed): as the sequence (O75019 17-461 limits assumed) above
Protocol: as §1

[7] = molecular target: T7, human LILRA2 (human, UniProt Q8N149 24-449); assay: ELISA, 200 nM antibody, OD450; + = 2-fold over ISO
T7 construct: Bought protein; also called hLILRA2
T7 sequence (Q8N149 24-449 limits assumed): as the sequence (Q8N149 24-449 limits assumed) above
Protocol: as §1

[8] = molecular target: T8, human LILRB1 Variant 2 (human, UniProt Q8NHL6 24-458, limits assumed); assay: ELISA (FIG. 12B)
T8 construct: protein bought from Kactusbio, LLC (Cat: LIL-HM2V1 and LIL-HM2V2 for Variant 2 and 3)

[9] = molecular target: T9, human LILRB1 Variant 3 (human, UniProt Q8NHL6 24-458, limits assumed); assay: ELISA (FIG. 12C)
T9 construct: protein bought from Kactusbio, LLC

[10] = molecular target: T10, human LILRA1 (human, UniProt O75019 17-461, limits assumed); assay: ELISA, antibody at 200 nM, OD450; + = 2-fold over ISO
T10 construct: Bought protein; also called hLILRA1
T10 sequence (O75019 17-461 limits assumed): as the sequence (O75019 17-461 limits assumed) above
Protocol: as §1

[11] = molecular target: T11, human LILRB4 (human, UniProt Q8NHJ6 22-259); assay: as above
T11 construct: Bought protein; also called hLILRB4
Protocol: as §1

[12] = molecular target: T12, human LILRB3 (human, UniProt O75022 24-443); assay: ELISA, OD450, antibody at 200 nM; + = 2-fold over ISO
T12 construct: bought protein coated for ELISA; also called hLILRB3
Protocol: as §1

[13] = molecular target: T13, human LILRB5 (human, UniProt O75023 24-458); assay: as above
T13 construct: bought protein coated for ELISA; also called hLILRB5
Protocol: as §1

[14] = molecular target: T14, human LILRA1 (human, UniProt O75019 17-461, limits assumed); assay: as above; remark: listed apart in the source
T14 construct: bought protein coated for ELISA; also called hLILRA1
T14 sequence (O75019 17-461 limits assumed): as above
Protocol: as §1

[15] = molecular target: T15, human LILRB1 (human, UniProt Q8NHL6 24-458, limits assumed); assay: Octet off-rate ranking;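 further: antibody dissociation rate constants against cynomolgus LILRB2 plus human LILRB1, LILRB2, LILRA1 and LILRA2, measured on an Octet instrument to rank binding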
T15 construct: also called hLILRB1
Description: (§2) Binding affinity of anti-LILRB1 and anti-LILRB2 antibodies against human LILRB1, LILRB2, LILRA1, LILRA2 and cynomolgus LILRB2 was ranked by measuring dissociation rate constant (Kdis) using the Octet system.

[16] = molecular target: T16, human LILRA1 (human, UniProt O75019 17-461, limits assumed); assay: Octet off-rate ranking;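 further: antibody dissociation rate constants against cynomolgus LILRB2 plus human LILRB1, LILRB2, LILRA1 and LILRA2, measured on an Octet instrument to rank binding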
T16 construct: also called hLILRA1
T16 sequence (O75019 17-461 limits assumed): as above
Description: as §2

[17] = molecular target: T17, Biotinylated LILRB1 (UniProt Q8NHL6 24-458, limits assumed, biotinylated (sites not given)); assay: epitope binning ELISA, coated 1 ug/ml; competitor 15G8 at 20 ug/ml
[18] = molecular target: T17, Biotinylated LILRB1; assay: epitope binning ELISA, coated 1 ug/ml; competitor LK-RB1-9 at 20 ug/ml
Protocol: (§3) Binding epitope of a subset of anti-LILRB1 and anti-LILRB2 antibodies was analyzed by epitope binning ELISA. Briefly, a panel of testing antibodies were coated onto ELISA plate. 50 ul/well Biotinylated LILRB1 or LILRB2 and 50 ul/well of competing antibodies were added to the coated plate and incubated at 37° C. for 1 hour. After Streptavidin-HRP (1:5000) incubation and TMB development, the plates were read at 450 nm using Molecular device spectra max plus384.

[19] = molecular target: T17, Biotinylated LILRB1; assay: epitope binning ELISA, coated 1 ug/ml; competitor LK-RB1-12 at 20 ug/ml
Protocol: as §3

[20] = molecular target: T17, Biotinylated LILRB1; assay: epitope binning ELISA, coated 1 ug/ml; competitor LK-RB1-16 at 20 ug/ml
Protocol: as §3

[21] = molecular target: T17, Biotinylated LILRB1; assay: epitope binning ELISA, coated 1 ug/ml; competitor LK-RB1-31 at 20 ug/ml
Protocol: as §3

[22] = molecular target: T17, Biotinylated LILRB1; assay: epitope binning ELISA, coated 1 ug/ml; competitor LK-RB1-33 at 20 ug/ml
Protocol: as §3

[23] = molecular target: T17, Biotinylated LILRB1; assay: epitope binning ELISA, coated 1 ug/ml; competitor LK-RB1-47 at 20 ug/ml
Protocol: as §3

[24] = molecular target: T17, Biotinylated LILRB1; assay: epitope binning ELISA, coated 1 ug/ml; competitor hz73D1.v1 at 20 ug/ml
Protocol: as §3

T17 sequence (Q8NHL6 24-458 limits assumed): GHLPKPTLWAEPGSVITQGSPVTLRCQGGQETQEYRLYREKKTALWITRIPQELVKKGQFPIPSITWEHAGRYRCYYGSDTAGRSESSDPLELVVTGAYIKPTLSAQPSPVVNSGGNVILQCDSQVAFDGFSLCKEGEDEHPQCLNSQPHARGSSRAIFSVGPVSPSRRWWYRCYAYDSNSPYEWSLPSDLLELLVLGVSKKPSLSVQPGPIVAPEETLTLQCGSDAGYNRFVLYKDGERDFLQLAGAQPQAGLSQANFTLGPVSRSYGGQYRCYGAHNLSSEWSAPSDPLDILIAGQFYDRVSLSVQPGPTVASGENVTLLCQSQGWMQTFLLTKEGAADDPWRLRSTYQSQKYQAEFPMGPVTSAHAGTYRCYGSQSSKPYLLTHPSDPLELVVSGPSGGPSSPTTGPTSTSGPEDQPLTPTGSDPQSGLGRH
T9 sequence (Q8NHL6 other isoform, or with tags, fused parts or gaps mutant limits assumed): as the sequence (Q8NHL6 24-458 limits assumed) above, with L45P, I119T, S132I counted along it
T13 sequence (O75023 24-458 limits assumed): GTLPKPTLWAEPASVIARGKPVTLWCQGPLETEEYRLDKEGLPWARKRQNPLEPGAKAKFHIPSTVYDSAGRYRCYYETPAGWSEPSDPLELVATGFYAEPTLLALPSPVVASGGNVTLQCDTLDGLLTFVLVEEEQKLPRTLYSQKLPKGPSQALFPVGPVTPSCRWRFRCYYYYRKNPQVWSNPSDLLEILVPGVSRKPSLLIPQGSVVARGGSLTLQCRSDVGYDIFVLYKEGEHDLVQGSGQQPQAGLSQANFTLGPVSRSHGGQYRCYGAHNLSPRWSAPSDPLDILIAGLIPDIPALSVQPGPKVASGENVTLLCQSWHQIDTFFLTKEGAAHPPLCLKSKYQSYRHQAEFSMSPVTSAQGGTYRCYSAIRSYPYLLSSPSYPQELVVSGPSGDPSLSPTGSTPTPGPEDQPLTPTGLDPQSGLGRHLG
T8 sequence (Q8NHL6 other isoform, or with tags, fused parts or gaps mutant limits assumed): as the sequence (Q8NHL6 24-458 limits assumed) above, with L45P, A70T, I119T, S132I counted along it
T5 sequence (P59901 24-446 limits assumed): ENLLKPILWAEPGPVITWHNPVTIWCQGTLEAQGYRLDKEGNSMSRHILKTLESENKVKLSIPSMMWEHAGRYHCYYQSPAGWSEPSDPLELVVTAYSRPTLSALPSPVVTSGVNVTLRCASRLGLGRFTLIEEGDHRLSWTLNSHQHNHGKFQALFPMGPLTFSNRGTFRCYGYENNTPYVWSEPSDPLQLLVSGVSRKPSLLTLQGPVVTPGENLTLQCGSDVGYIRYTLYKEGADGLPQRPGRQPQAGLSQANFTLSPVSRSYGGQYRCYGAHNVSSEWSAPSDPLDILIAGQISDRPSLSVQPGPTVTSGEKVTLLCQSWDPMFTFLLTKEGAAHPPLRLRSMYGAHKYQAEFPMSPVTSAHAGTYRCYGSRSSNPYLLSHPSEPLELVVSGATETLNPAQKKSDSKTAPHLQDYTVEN
T15 sequence (Q8NHL6 24-458 limits assumed): as the sequence (Q8NHL6 24-458 limits assumed) above

B1: LK-RB1-45 (antibody, human IgG4 S228P, kappa, V domains shown)
VH: QVQLQQSGTELARPGASVKLSCKASGYTFTNFWMHWIKQRPGQGLEWIGYVNPTSDYTKYNQKFKDKATLTADKSSSTAYMQLNSLTYEDSAVYYCTRSSLYDTNYVFDSWGQGTTLTVSS
VL: DILLTQSPAILSVSPGERVSFSCRASQSIGRSIHWYQQRTNGSPRLLIKYASESISGIPSRFSGGGSGTDFTLSISNVESEDIADYYCQQSNNWPFTFGSGTKLEIKR
notes: anti-LILRB1 clone from mouse hybridoma
binding result [1]: binds

B2: LK-RB1-13 (antibody, human IgG4 S228P, kappa, V domains shown)
VH: QVTLKESGPGIVKPSQTLSLTCSFSGFSLSISGTGIGWIRQPSGKGLEWLAHIWWDDDKYYNPSLKSQVTISKDTSTKQVFLNITSVDTADTATYYCTRTELGRGDFWGQGTSVTVSS
VL: DILLTQSPAILSVSPGDRVSFSCRASQSTGTNIHWYQRRTNGSPRLLIKYGSESISGIPSRFSGSGTGTDFTLTINSVESEDIADYYCQQSYSWPYTFGGGTKLEIKR
notes: anti-LILRB1 antibody
binding result [2]: binds

B3: LK-RB1-15 (antibody, human IgG4 S228P, kappa, V domains shown)
VH: B2 VH
VL: B2 VL with T29I
notes: anti-LILRB1 antibody
binding result [3]: binds
binding result [4]: binds

B4: LK-RB1-2 (antibody, human IgG4 S228P, kappa, V domains shown)
VH: QIQLVQSGPELKKPGETVKISCKASGYTFTTYGVSWVKQAPGKGLKWMGWINTYSGVSTYSDDFKGRFAFSLETSASTAYLQIINLKNEDAATYFCSRRRRTYDGYLSFDYWGQGTTLTVSS
VL: DIQMTQSPGSLSASVGETVTITCGASENIYGALNWFQRKPGKSPQLLIYGATNLADGMSSRFSGSGSGRQYSLQISSLRPDDVATYYCQNVLTTPWTFGGGTKVEIKR
notes: anti-LILRB1 antibody
binding result [5]: binds

B5: LK-RB2-29 (antibody, human IgG4 S228P, kappa, V domains shown)
VH: QVQLQQSGAELARPGASVKLSCKASGYTFTSYWMQWVKQRPGQGLEWIGAIYPGDGDTRYTQKFKGKATLTADKSSSTAYMQLSSLASEDSAVYYCARGYYGSSYADYFDYWGQGTTLTVSS
VL: DIQMTQSPASLSASVGETVTITCRASGNIHNYLAWYQQKQGKSPQLLVYNAKTLADGVPSRFSGSGSGTQYSLKINSLQPEDFGSYYCQHFWSTPPTFGGGTKLEIKR
binding result [6]: binds
binding result [7]: binds

B6: LK-RB1-16.h3 (antibody, human IgG4, kappa, V domains shown)
VH: QVQLQESGPGLVKPSETLSLTCTVSGFSLISNAISWIRQPPGKGLEWLGVIWGDGNTIYHSALRSRLTISKDTSKNQVFLKLSSVTAADTAVYYCAKANWDGYYFDYWGQGTTVTVSS
VL: DIQMTQSPSTLSASVGDRVTITCHASQSVDFWLNWYQQKPGKAPKLLISKASNLHTGVPSRFSGSGSGTEFTLTISSLQPDDFATYYCQQGQSYPLTFGQGTKLEIKR
notes: humanized LK-RB1-16
binding result [8]: binds
binding result [9]: binds

B7: LK-RB2-12 (antibody, human IgG4 S228P, kappa, V domains shown)
VH: QIQLVQSGPELKKPGETVKISCKASGYTFTTYGMSWVKQTPGKGLKWMGWINIYSGVPTYADDFKGRFVFSLEISASTAHLQINNLKNEDTATYFCARRKDYSGHCFDYWGQGTTLTVSS
VL: DIVLTQSPASLAVSPGQRATISCRASESVDTYGISFMHWYQQKPGQPPKLLIYRASNLESGIPARFSGSGSRTDFTLTINPVETDDVAIYYCQQSKKDPYTFGGGTKLEIKR
binding result [10]: binds
binding result [11]: binds

B8: LK-RB2-15 (antibody, human IgG4 S228P, kappa, V domains shown)
VH: B7 VH with T40A, I53V, V69A, H80Y, N88D
VL: B7 VL with P15L, I21F, I89T, D98E
binding result [10]: binds
binding result [11]: binds

B9: LK-RB1-9.h1 (antibody, human IgG4, kappa, V domains shown)
VH: QVQLVQSGSELKKPGASVKVSCKASGYTFTTYGMSWVRQAPGQGLEWMGWINTYSGVPTYADDFKGRFVFSLDTSVSTAYLQISSLKAEDTAVYYCARRRRTYHGYLSFDYWGQGTTVTVSS
VL: DIQMTQSPSSLSASVGDRVTITCETSENIYGALNWYQQKPGKAPKLLIYGATNLAEGVPSRFSGSGSGTDFTFTISSLQPEDIATYYCQNVLNTPWTFGGGTKLEIKR
notes: humanized LK-RB1-9
binding result [8]: binds
binding result [9]: binds

B10: LK-RB1-36 (antibody, human IgG4 S228P, kappa, V domains shown)
VH: DVQLQESGPGLEKPSQSLSLTCSVTGYSITRGYQWNWIRQFPGNKLEWMGYISYDGSNNYNPSLKNRISIIRDTSKNQFFLKLNSVTTEDTATYYCARRSYNSIDYWGQGTTLTVSS
VL: DIVLTQSPATLSVTPGDSVSLSCRASQSISNNLHWYQQKSHESPRLLIKYASQSISGIPSRFSGSGSGTDFTLSINSVETEDFGMYFCQQSNSWPLTFGAGTKLELKR
notes: as for B1
binding result [12]: binds
binding result [13]: binds

B11: LK-RB1-39 (antibody, human IgG4 S228P, kappa, V domains shown)
VH: EVQLQQSGAELVRPGASVKLSCTASGFNIKDDYVHWVNQRPEQGLEWIGWIDPENGDTGYASKFQDKATITADTSSNTAYLHLSSLTSEDTAVYYCTTTRWTGSYWGQGTTLTVSS
VL: QIVLTQSPAIMSASPGEKVTITCSASSSVNYMHWFQQKPGSSPKLWIYSTANLASGVPARFSGSGSGTSYSLTISRMEAEDAATYYCQQRSSYPPTWTFGGGTKLEIKR
notes: as for B1
binding result [14]: binds
binding result [1]: binds
binding result [12]: binds
binding result [13]: binds

B12: LK-RB1-11 (antibody, human IgG4 S228P, kappa, V domains shown)
VH: QVTLKESGPGILQPSQTLSLTCSFSGFSLKTSGMSVGWIRQPSGKGLEWLAHIWWNDDKYYNPVLKGRLTISKDTSNNLVFLKIASVVSTDTATYYCVRYGNSHGYWYFDVWGTGTTVTVSS
VL: NIVLTQSPASLAVSLGQRATISCRASESVDSYGNNFIHWYQQKPGQPPKVLIYYASNLEAGVPARFSGSGSRTDFTLTIDPVEAEDAATYYCQQNNEDPYTFGGGTKLEIER
notes: anti-LILRB1 antibody
binding result [3]: binds
binding result [4]: binds

B13: hz73D1.v1 (antibody, human IgG4 S228P, kappa, V domains shown)
VH: QVQLVQSGAEVKKPGASVKVSCKASGYTFTDYYINWVRQAPGQGLEWMGNVNPNDGGTTYNQKFKGRVTMTTDTSTSTAYMELRSLRSDDTAVYYCARREIYFYGTIYYYAMDYWGQGTLVTVSS
VL: DIQLTQSPSFLSASVGDRVTITCRASESVDYYGNSFMYWYQQKPGKAPKLLIYFASNLESGVPSRFSGSGSGTEFTLTISSLQPEDFATYYCQQNNEDPWTFGGGTKVEIKR
koff [15]: 5.18e-05 s⁻¹
koff [16]: 7.52e-06 s⁻¹
Inhibition % [17]: -3.83%
Inhibition % [18]: 57.4%
Inhibition % [19]: 82.8%
Inhibition % [20]: 61.2%
Inhibition % [21]: 41.6%
Inhibition % [22]: 23.5%
Inhibition % [23]: 46.9%
Inhibition % [24]: 31.4%
